In publication PMC1636342:
Like-named read-outs stand apart in the source and are kept apart here.

What was measured:
Assay in all cases: tryptophan fluorescence quenching
Bs-CspB [1] = biological target: T1, Bs-CspB (Bacillus subtilis, UniProt P32081 1-67)
Bs-CspB [2] = biological target: T1, Bs-CspB; remark: listed apart in the source
Bs-CspB [3] = biological target: T1, Bs-CspB; remark: listed apart in the source
Bs-CspB [4] = biological target: T1, Bs-CspB; remark: listed apart in the source
Bs-CspB [5] = biological target: T1, Bs-CspB; remark: listed apart in the source
Bs-CspB G54A = Bs-CspB G54A (Bacillus subtilis, UniProt P32081 1-67, G54A)
Bs-CspB F27A = Bs-CspB F27A (Bacillus subtilis, UniProt P32081 1-67, F27A)
Bs-CspB Q59A = Bs-CspB Q59A (Bacillus subtilis, UniProt P32081 1-67, Q59A)
Bs-CspB F30A = Bs-CspB F30A (Bacillus subtilis, UniProt P32081 1-67, F30A)
Bs-CspB K7A = Bs-CspB K7A (Bacillus subtilis, UniProt P32081 1-67, K7A)
Bs-CspB G35A = Bs-CspB G35A (Bacillus subtilis, UniProt P32081 1-67, G35A)
Bs-CspB F30W = Bs-CspB F30W (Bacillus subtilis, UniProt P32081 1-67, F30W)
Bs-CspB R56A = Bs-CspB R56A (Bacillus subtilis, UniProt P32081 1-67, R56A)
Bs-CspB F17A = Bs-CspB F17A (Bacillus subtilis, UniProt P32081 1-67, F17A)
Bs-CspB K13Q = Bs-CspB K13Q (Bacillus subtilis, UniProt P32081 1-67, K13Q)
Bs-CspB G54P = Bs-CspB G54P (Bacillus subtilis, UniProt P32081 1-67, G54P)
Bs-CspB H29Q = Bs-CspB H29Q (Bacillus subtilis, UniProt P32081 1-67, H29Q)
Bs-CspB D25A = Bs-CspB D25A (Bacillus subtilis, UniProt P32081 1-67, D25A)
Bs-CspB F38A = Bs-CspB F38A (Bacillus subtilis, UniProt P32081 1-67, F38A)
Bs-CspB F15A = Bs-CspB F15A (Bacillus subtilis, UniProt P32081 1-67, F15A)
Bs-CspB P58A = Bs-CspB P58A (Bacillus subtilis, UniProt P32081 1-67, P58A)
Bs-CspB F15Y = Bs-CspB F15Y (Bacillus subtilis, UniProt P32081 1-67, F15Y)
Bs-CspB G35P = Bs-CspB G35P (Bacillus subtilis, UniProt P32081 1-67, G35P)
Bs-CspB [6] = biological target: T1, Bs-CspB; remark: listed apart in the source
Bs-CspB [7] = biological target: T1, Bs-CspB; remark: listed apart in the source

B1: CTCTTCC (ssDNA)
DNA: CTCTTCC
Bs-CspB [1]
  Kd: 66.2 ± 4.8 nM

B2: dcb2ds_13 (ssDNA)
DNA: GTTTTGTAAGAGT
Bs-CspB [2]
  Kd: 66 ± 21 nM

B3: dcb2_a (ssDNA)
DNA: TTTAAGAAGAAAGTTTT
Bs-CspB [2]
  Kd: 460 ± 34 nM

B4: Y-box25 (ssDNA)
DNA: ATCCTACTGATTGGCCCAGGTGCTG
Bs-CspB [3]
  Kd: 3920 ± 45 nM

B5: CTCTCTC (ssDNA)
DNA: CTCTCTC
Bs-CspB [1]
  Kd: 10.8 ± 0.9 nM

B6: dT6 (ssDNA)
DNA: TTTTTT
Bs-CspB [4]
  Kd: 326 ± 20 nM

B7: dcb1_b (ssDNA)
DNA: GAGCAAGAATAGG
Bs-CspB [2]
  Kd: 1160 ± 90 nM

B8: dcb1 (ssDNA)
DNA: TTATTAG
Bs-CspB [4]
  Kd: 20 ± 3 nM

B9: dcb1_br (ssDNA)
DNA: GGATAAGAACGAG
Bs-CspB [2]
  Kd: 1090 ± 110 nM

B10: Y-box7 (ssDNA)
DNA: TATTGGT
Bs-CspB [5]
  Kd: 530 ± 50 nM

B11: dcb2_b (ssDNA)
DNA: GAGTTTTGGTCTTGAA
Bs-CspB [2]
  Kd: 43 ± 2 nM

B12: dcb1_a (ssDNA)
DNA: ATTATTTTTGTTC
Bs-CspB [2]
  Kd: 44 ± 2 nM

B13: dT7 (ssDNA)
DNA: TTTTTTT
Bs-CspB G54A
  Kd: 1.3 ± 0.3 nM
Bs-CspB F27A
  Kd: 286 ± 7 nM
Bs-CspB Q59A
  Kd: 2.7 ± 0.4 nM
Bs-CspB F30A
  Kd: 208 ± 11 nM
Bs-CspB K7A
  Kd: 6.4 ± 0.6 nM
Bs-CspB G35A
  Kd: 1.1 ± 0.3 nM
Bs-CspB F30W
  Kd: 1.3 ± 0.3 nM
Bs-CspB R56A
  Kd: 11.8 ± 1.4 nM
Bs-CspB F17A
  Kd: 345 ± 63 nM
Bs-CspB K13Q
  Kd: 25 ± 3 nM
Bs-CspB G54P
  Kd: 220 ± 9 nM
Bs-CspB H29Q
  Kd: 104 ± 6 nM
Bs-CspB D25A
  Kd: 21.4 ± 0.5 nM
Bs-CspB F38A
  Kd: 228 ± 9 nM
Bs-CspB F15A
  Kd: 135 ± 4 nM
Bs-CspB P58A
  Kd: 1.3 ± 0.2 nM
Bs-CspB F15Y
  Kd: 1.4 ± 0.4 nM
Bs-CspB G35P
  Kd: 118 ± 5 nM
Bs-CspB [6]
  Kd: 1.8 ± 0.4 nM

B14: dcb2_br (ssDNA)
DNA: AAGTTCTGGTTTTGAG
Bs-CspB [2]
  Kd: 30 ± 2 nM

B15: dC6 (ssDNA)
DNA: CCCCCC
Bs-CspB [4]
  Kd: 12600 ± 1000 nM

B16: CTCCTTC (ssDNA)
DNA: CTCCTTC
Bs-CspB [1]
  Kd: 12.5 ± 0.6 nM

B17: Y-box5 (ssDNA)
DNA: ATTGG
Bs-CspB [4]
  Kd: 5300 ± 1000 nM

B18: CTTTTTC (ssDNA)
DNA: CTTTTTC
Bs-CspB [1]
  Kd: 33.7 ± 4.1 nM

B19: Y-box12 (ssDNA)
DNA: CTGATTGGCCAA
Bs-CspB [7]
  Kd: 2030 ± 390 nM

B20: CTCTTTC (ssDNA)
DNA: CTCTTTC
Bs-CspB [1]
  Kd: 3.9 ± 0.2 nM
